One molecule from patent US9249224B2 (RINAT NEUROSCIENCE CORP., priority 2011, dated 2016) can be followed below.

Several values for one entry are separate records, joined by “and”; a condition that tells them apart may be missing. Equal values may be shown once.

This assay addresses T1, human GHR (Homo sapiens, UniProt P10912).
T1 construct: his-tagged monomers of amino acids 31-235 of the extracellular domain of the human or cyno GHR
T1 sequence (P10912 49-253): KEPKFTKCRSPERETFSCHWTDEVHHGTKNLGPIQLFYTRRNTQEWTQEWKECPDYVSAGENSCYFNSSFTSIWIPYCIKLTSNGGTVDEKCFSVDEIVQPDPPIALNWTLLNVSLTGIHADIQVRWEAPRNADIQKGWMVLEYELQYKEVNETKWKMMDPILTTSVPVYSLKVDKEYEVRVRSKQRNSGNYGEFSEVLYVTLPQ
The assay is described as follows: Biacore kinetics and affinity, captured IgG, human GHR analyte, 25° C. It is filed as binding. Conditions: IgG immobilized by capture. As for the experimental part: The affinity of a mouse anti-GHR antibody, Ab13, to human and cyno GHR was measured on a Biacore™ 2000 biosensor (GE Lifesciences™, Piscataway N.J.). An anti-mouse Ig sensor surface was prepared using a Biacore™ CM5 chip and reagents from the Biacore™ mouse antibody capture kit (GE Lifesciences™, Catalog# BR-1008-38), using instructions provided by the manufacturer.
The kinetics assay was run using a kinetic titration methodology as described in Karlsson et al., 2006, Anal. Biochem 349, 136-147. The mouse antibody, Ab13, was captured onto downstream flow cells at 0.5 μg/mL at a flow rate of 5 μL/min for 1 minute, 2 minutes and 4 minutes on flow cells 2, 3 and 4 respectively. Flow cell 1 was used as a reference surface. […]
The affinities of a humanized GHR antibody, SS1, and a chimeric molecule comprising the Fab of Ab13 fused to a human Fc domain (“Ab13-hFc”) to human and cyno GHR was measured on a Biacore™ 2000 biosensor (GE Lifesciences™ Piscataway N.J.). […]
The kinetics assay was run using a methodology with varying dissociation times as described in Katsamba et al., 2006, Anal. Biochem 352, 208-221. […] After the analyte injection, dissociation was monitored for 30 minutes (for the 400 nM GHR cycle) or 30 seconds (all other cycles) followed by regeneration of all flow cells with two 30-second injections of 75 mM phosphoric acid. […]
A general note: SPR reads the build-up and loss of mass on a sensor chip optically.

B1: SS1: humanized GHR antagonist antibody; VL SEQ ID NO: 7, VH SEQ ID NO: 8; hIgG2Δa heavy chain SEQ ID NO: 134, light chain SEQ ID NO: 135 (antibody)
heavy: EVQLVESGGGLVKPGGSLRLSCAASGFTFSDAWMDWVRQAPGKGLEWVAEIRSKANYHATYYAESVKGRFTISRDDSKNTLYLQMNSLKTEDTAVYYCTLIRDYWGQGTLVTVSSASTKGPSVFPLAPCSRSTSESTAALGCLVKDYFPEPVTVSWNSGALTSGVHTFPAVLQSSGLYSLSSVVTVPSSNFGTQTYTCNVDHKPSNTKVDKTVERKCCVECPPCPAPPVAGPSVFLFPPKPKDTLMISRTPEVTCVVVDVSHEDPEVQFNWYVDGVEVHNAKTKPREEQFNSTFRVVSVLTVVHQDWLNGKEYKCKVSNKGLPSSIEKTISKTKGQPREPQVYTLPPSREEMTKNQVSLTCLVKGFYPSDIAVEWESNGQPENNYKTTPPMLDSDGSFFLYSKLTVDKSRWQQGNVFSCSVMHEALHNHYTQKSLSLSPGK
light: EIVLTQSPGTLSLSPGERATLSCTATSSVSSSYLNWYQQKPGQAPRLLIYSTSNLASGIPDRFSGSGSGTDFTLTISRLEPEDFAVYYCHQYHRSTPTFGGGTKVEIKRTVAAPSVFIFPPSDEQLKSGTASVVCLLNNFYPREAKVQWKVDNALQSGNSQESVTEQDSKDSTYSLSSTLTLSKADYEKHKVYACEVTHQGLSSPVTKSFNRGEC
modifications: Humanized and/or affinity matured antibody sequence
Turning to B1, the “ka” value was 77000 M⁻¹ s⁻¹ and 74000 M⁻¹ s⁻¹; the “kd” value was 6.4e-05 s⁻¹ and 7.7e-05 s⁻¹.
